Measured values: patent publication US20180094056A1 (Genentech, published 2018)

What was measured:
[1] = molecular target: T1, recombinant human Her2 ECD (Human Her2/ErbB2 protein, catalog #10004-HCCH, Sino Biological Inc.) (human, UniProt P04626 23-652); experiment: SPR (Biacore), conditions of Example 1, HER2 ECD immobilized on CM5 chip
T1 construct: extracellular domain; also called HER2 antigen; HER2 target

[2] = molecular target: T1, recombinant human Her2 ECD (Human …); experiment: SPR (Biacore T200), HER2 ECD immobilised on CM5, anti-HER2/CD3 TDB as analyte
[3] = molecular target: T1, recombinant human Her2 ECD (Human …); experiment: SPR (Biacore), conditions of Example 1, human Her2 ECD immobilized on CM5 chip

B1: 4D5v3-40G5 anti-HER2/CD3 TDB (bispecific antibody, V domains shown)
VH 1: not shown
VL 1: not shown
VH 2: EVQLVQSGAEVKKPGASVKVSCKASGYTFTNYYIHWVRQAPGQGLEWIGWIYPGDGNTKYNEKFKGRATLTADTSTSTAYLELSSLRSEDTAVYYCARDSYSNYYFDYWGQGTLVTVSS
VL 2: DIVMTQSPDSLAVSLGERATINCKSSQSLLNSRTRKNYLAWYQQKPGQPPKLLIYWASTRESGVPDRFSGSGSGTDFTLTISSLQAEDVAVYYCTQSFILRTFGQGTKVEIK
notes: also called HER2 TDB
With B1 the Kd [1] was 0.06 nM, the “fold affinity relative to wildtype 4D5 TDB” value [2] was about 10 fold and the Kd [3] was 0.04 nM.
